From doi:10.1101/2022.01.03.474807

What was measured:
[1] = molecular target: human melanocortin-4 receptor (human) (UniProt P32245)
[2] = molecular target: human melanocortin-1 receptor (human) (UniProt Q01726)
[3] = molecular target: human melanocortin-5 receptor (human) (UniProt P33032)
[4] = molecular target: human melanocortin-3 receptor (human) (UniProt P41968)
UniProt P41968, sequence (P41968 whole entry): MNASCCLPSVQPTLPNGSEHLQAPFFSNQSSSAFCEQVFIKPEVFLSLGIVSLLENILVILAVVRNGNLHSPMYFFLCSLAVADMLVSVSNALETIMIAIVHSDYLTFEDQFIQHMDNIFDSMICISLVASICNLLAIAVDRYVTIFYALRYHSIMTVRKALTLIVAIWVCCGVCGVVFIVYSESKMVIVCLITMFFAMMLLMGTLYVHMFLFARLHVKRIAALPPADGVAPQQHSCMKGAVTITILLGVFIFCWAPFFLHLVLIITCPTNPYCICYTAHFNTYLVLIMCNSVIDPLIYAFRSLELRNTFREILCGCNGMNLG

UniProt P32245, sequence (P32245 whole entry): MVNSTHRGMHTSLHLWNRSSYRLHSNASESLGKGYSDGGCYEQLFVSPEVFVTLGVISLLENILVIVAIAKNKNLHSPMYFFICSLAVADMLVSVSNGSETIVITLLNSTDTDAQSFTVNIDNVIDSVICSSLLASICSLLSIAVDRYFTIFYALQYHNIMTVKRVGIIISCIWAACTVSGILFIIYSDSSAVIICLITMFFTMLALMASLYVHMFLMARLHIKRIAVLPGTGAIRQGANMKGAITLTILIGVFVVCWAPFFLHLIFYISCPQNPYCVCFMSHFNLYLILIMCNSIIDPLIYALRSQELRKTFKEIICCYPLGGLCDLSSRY
UniProt Q01726, sequence (Q01726 whole entry): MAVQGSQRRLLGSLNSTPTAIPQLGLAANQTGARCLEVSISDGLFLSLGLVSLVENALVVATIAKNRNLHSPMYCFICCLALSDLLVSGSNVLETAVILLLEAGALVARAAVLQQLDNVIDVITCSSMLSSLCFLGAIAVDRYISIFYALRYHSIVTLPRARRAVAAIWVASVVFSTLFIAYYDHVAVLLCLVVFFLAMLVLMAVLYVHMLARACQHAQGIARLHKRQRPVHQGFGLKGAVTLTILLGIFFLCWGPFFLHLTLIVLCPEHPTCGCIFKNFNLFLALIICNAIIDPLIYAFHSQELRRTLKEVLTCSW
UniProt P33032, sequence (P33032 whole entry): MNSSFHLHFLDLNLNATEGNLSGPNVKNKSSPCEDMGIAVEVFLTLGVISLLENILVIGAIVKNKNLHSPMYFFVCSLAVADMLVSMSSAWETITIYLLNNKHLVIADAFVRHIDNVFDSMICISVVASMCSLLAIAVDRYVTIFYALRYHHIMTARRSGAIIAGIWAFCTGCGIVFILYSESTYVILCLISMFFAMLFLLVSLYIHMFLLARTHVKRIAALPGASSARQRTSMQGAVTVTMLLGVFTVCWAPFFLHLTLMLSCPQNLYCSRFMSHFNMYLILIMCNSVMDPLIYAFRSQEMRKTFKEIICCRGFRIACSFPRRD

“α-melanocyte-stimulating hormone (ligand)” was tested, and the EC90 of the cAMP response (split-luciferase cAMP sensor) [1] was 70 nM, the EC90 of the cAMP response (split-luciferase cAMP sensor) [2] was 10 nM and the EC90 of the cAMP response (split-luciferase cAMP sensor) [3] was 500 nM. The EC90 of the cAMP response (split-luciferase cAMP sensor) [4] was 30 nM.
